Reference: the DeepSol protein solubility set

Assay: soluble on expression in E. coli; label from the status in PepcDB or PDB records

Sequence | soluble on expression in E. coli
MGSDKIHHHHHHDGKFTLGAGVGVVEHPYKQYDADVYPVPVISYESENFWFHGLGGGYYLWNDTNDKLSITAYWSPMYFKPGDSDSEQMRRLDKRKSTVMAGLSYVHNTPYGFLRTTIAGDTLDNSNGINWDLAWLYRYTNGNLTLTPGIGVEWNSDNQNEYYYGVSRHESRRSGMRSYDPDSSWNPYLELSANYRFLGDWSVYGVARYTRLSDEITDSPMVDKSWSGLISTGITYTF | not soluble
MPIKSVAIIGAGIAGLTAALAFARHGIDCDIIEQTGELAEVGAGLQLSPNAARILATLGVLPDIEARWTEPVSVDLASGKSLTTLLSLPMGAVARSRWGAPYGVLHRSTLQSALLQAVTRNPLCRLHLGKRIENATADVIAATTFRDHDLIVGADGVWSAARFSVPAAPTATFSGNVAWRFTVAAEEVPSAFNKTTVTAYLGSRGHIVAYPLKEVGGFNIVAIALGADPGATWRAESSGRQKALLLEQFRDFSPDIVRLLDSSENPTFWPLYQAGPGRWHNGRDTVLIGDAAHAMMPFAAQGAAMAIEDAFELAGTMAGSNGEKPLPVPQALAAFEALRLPRIEKARKRASLNRFAYHARGPVRIARDLVFSTRPPEAFLKDFDWLYGYHARGLEHHHHHH | soluble
TLLPQVQVLSWDHYVASSPQIYEPSLMIVAQGSKLARLGPRTLEYGAGHYLVQALSVPFMCETFATREAPLLGVAVGIDRGVLGELVQSMGLAPDAEVQAQTPQSMTSAALDAPMRESVERLLHCLQDPLDAKVLGPARVREVLYTALRGPQAGVL | not soluble
MMYIDNEVLEKMIMTMVEGFNRLEKKLDRMNRLKDCLDGDTLLDNCDLAQLLGVTQRTIARYREKGLIRYYQTDENGKNFYRSSEIQDFLRHRGKKK | not soluble
MIEITVNDRLGKKVRIKCNPSDTIGDLKKLIAAQTGTRWEKIVLKKWYTIYKDHITLMDYEIHEGFNFELYYQ | not soluble
MGSDKIHHHHHHMESLIESNINFSIFFYNPNIHPVKEYLIRKEENIRFAEKHNIPFIDADYDTDNWFARAKGMENEPERGIRCTMCFDMRFERTALYAYENGFSLISSSLGISRWKNMAQINDCGIRAASHYPDIQYWDYNWRKNGGSSRMIEISKREEFYQQEYCGCVYSLRDTNRWRMSNGRDRIKIGVKFYSNAMEND | not soluble
MYQVVKMFGDWEPWWFIEGWEEDITEIAEYDTLSEALLYFQEEWDRGQEKWPYFQSKSSLLATFWSIKEKRWCEECDEYLQQYHSLMLLKEWQEIPKEESIERFEVFNKIAELPSACSLNLLEHHHHHH | soluble
MLNQNERHQILEEAVEWLMQMKQKPLNEIELLEFEQWKNRSQLHQSIWQQAYQLEEKFQSLPSHIAIPIIQKQKSHPDIWLMVLSCLPLLGLLYVMNQQQQWTADYRNGFHAPQTVKLPDGGKIILNSNTAIDVKYTAKKRDIILRKGEIWIETQHDVKNRPFTVYTQQGQAQALGTKYLVKIDQKSSQIAVLKGAVKVQPKTNNQYVIITKGQKISINQYNLHSVEYFDHSEIGWTKGLIMVNEIPLSEFVQKLRPYQSALIYLDPEVSNIKISGTFPIANMAQLYEMLENTYAIDVDRYAMNHIIRIRQKK | not soluble
MDKKVTDSTQRGYYIVYLFSEDMCRLYLTLTQRVTETPRDEMERVKQDIRQQIPVGGRVQTDNAIRLSASKRAKEYERSVAVYIAYSFDNLPSDEQLVSDLKTMIGYYRQYVERTEKMTPFKQSLSDRSVVEHIHFYITAKGFYYTQEEVMNLFLSLKTKPFVILSGISGTGKTKIAQWLAESVGATEDNGQFILIPVCPDWNDGSDLLGYVDIKGDFKPGPLTNVITEAENHPDKPYFVVLDEMNLARVEHYFSDVLSVMGSRRWENGRITLSRLLPKETAGRDLFLPPNVYIIGTVNMDETTHPFSKKVLDRANTIEFNRIRLDHLDFLRDLPTVAPLSGGQEWFAARLEHHHHHH | not soluble
RQPSSLPEGLPAPLEKRVKELAQAARAAEGESRQKFFTQDINGILLDIEAQTRELSSQVRSGVYAYLASFLPCSKDALLKRARKLHLYEQGGRLKEPLQKLKEAIGRAMPEQMAKYQDECQAHTQAKVAKMLEEEKDKEQRDRICSDEEEDEEKGGRRIMGPRKKFQWNDEIRELLCQVVKIKLESQDLERNNKAQAWEDCVKGFLDAEVKPLWPKGWMQARTLFKESRRGHGHLTSILAKKKVMAPSKIKVKESSTKPDKKVSVPSGQIGGPIALPSDHQTGGLSIGASSRELPSQASGGLANPPPVNLEDSLDEDLIRNPASSVEAVSKELAALNSRAAGNS | not soluble
